Assay results published in patent publication US20190077860A1 (EISAI R AND D MANAGEMENT, published 2019).
Numbering of substitutions follows the chain as printed.

T1: human EphA7 extracellular region-SEAP-His protein (human, UniProt Q15375 28-555)
T1 construct: extracellular domain; also called hEphA7-SEAP-His
T1 sequence (looked up): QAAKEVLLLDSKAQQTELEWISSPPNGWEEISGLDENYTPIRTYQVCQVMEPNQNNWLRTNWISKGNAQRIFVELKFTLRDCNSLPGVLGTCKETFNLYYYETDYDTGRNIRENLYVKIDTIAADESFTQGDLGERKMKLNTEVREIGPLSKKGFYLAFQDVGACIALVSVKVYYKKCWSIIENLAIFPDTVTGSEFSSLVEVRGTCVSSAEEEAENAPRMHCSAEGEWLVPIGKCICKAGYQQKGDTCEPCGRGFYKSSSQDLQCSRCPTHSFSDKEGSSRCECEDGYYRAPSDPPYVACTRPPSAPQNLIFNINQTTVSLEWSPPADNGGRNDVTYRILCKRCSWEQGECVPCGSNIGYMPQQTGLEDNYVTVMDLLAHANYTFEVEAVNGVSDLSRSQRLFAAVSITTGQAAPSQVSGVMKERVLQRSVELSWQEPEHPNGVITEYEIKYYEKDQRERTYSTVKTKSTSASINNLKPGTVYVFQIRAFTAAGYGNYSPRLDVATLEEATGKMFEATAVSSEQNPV

T2: human EphB4 extracellular region-SEAP-His protein (human, UniProt P54760 16-539)
T2 construct: extracellular domain; also called hEphB4-SEAP-His
T2 sequence (looked up): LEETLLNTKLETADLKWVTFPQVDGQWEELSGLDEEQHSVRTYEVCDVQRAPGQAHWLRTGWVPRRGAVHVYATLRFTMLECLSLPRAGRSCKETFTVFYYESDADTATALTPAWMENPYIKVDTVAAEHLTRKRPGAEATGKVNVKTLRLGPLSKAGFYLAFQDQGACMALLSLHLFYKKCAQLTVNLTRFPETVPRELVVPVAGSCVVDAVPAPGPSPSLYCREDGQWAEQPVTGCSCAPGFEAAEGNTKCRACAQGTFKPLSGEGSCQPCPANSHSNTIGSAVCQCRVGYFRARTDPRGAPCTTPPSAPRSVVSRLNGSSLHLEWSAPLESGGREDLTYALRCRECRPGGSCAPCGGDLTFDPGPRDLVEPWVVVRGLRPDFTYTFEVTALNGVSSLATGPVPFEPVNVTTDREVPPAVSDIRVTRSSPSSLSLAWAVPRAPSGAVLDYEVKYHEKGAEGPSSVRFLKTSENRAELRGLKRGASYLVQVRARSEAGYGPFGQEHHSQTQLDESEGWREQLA

T3: human EphA3 extracellular region-SEAP-His protein (human, UniProt P29320 21-541)
T3 construct: extracellular domain; also called hEphA3-SEAP-His
T3 sequence (looked up): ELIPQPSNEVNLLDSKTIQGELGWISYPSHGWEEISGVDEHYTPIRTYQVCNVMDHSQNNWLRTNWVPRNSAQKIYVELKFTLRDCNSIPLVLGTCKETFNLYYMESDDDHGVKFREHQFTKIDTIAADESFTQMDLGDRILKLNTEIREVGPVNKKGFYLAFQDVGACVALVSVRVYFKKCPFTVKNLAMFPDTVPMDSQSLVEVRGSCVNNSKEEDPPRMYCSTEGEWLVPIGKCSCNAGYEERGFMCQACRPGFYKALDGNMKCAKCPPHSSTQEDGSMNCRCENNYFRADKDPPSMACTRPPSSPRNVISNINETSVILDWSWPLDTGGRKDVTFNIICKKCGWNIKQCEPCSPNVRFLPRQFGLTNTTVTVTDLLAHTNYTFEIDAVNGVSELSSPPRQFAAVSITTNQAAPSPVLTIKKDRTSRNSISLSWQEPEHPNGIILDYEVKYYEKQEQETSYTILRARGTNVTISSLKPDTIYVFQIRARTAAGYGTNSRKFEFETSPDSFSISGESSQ

T4: human EphB3 extracellular region-SEAP-His protein (human, UniProt P54753 34-559)
T4 construct: extracellular domain; also called hEphB3-SEAP-His
T4 sequence (looked up): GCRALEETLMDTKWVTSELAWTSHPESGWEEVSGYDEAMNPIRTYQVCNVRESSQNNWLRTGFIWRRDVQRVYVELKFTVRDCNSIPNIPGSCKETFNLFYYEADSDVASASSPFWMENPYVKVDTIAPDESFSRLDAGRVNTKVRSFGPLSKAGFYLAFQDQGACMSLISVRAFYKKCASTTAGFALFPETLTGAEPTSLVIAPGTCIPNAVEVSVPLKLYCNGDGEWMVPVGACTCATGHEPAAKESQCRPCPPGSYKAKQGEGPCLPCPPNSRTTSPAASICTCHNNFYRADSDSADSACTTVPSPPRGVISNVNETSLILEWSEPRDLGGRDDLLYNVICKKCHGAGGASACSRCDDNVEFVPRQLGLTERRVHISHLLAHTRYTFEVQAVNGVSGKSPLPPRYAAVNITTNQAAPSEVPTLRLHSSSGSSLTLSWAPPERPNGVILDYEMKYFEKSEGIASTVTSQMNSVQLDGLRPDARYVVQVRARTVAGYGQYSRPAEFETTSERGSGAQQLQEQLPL

B1: humanized antibody No. 137 (antibody, human IgG2)
heavy: QIQLVQSGSELKKPGASVKVSCKASGYTFTDYSMHWVRQAPGQGLKWMGWINTETGEPTYADDFKGRFVFSLDTSVSTAYLQISSLKAEDTAVYYCARIPLYYYGSRYWYFDVWGQGTTVTVSSASTKGPSVFPLAPSSRSTSESTAALGCLVKDYFPEPVTVSWNSGALTSGVHTFPAVLQSSGLYSLSSVVTVPSSNFGTQTYTCNVDHKPSNTKVDKTVERKSCVECPPCPAPPAAAPSVFLFPPKPKDTLMISRTPEVTCVVVDVSHEDPEVQFNWYVDGVEVHNAKTKPREEQFNSTFRVVSVLTVVHQDWLNGKEYKCKVSNKGLPAPIEKTISKTKGQPREPQVYTLPPSREEMTKNQVSLTCLVKGFYPSDIAVEWESNGQPENNYKTTPPMLDSDGSFFLYSKLTVDKSRWQQGNVFSCSVMHEALHNHYTQKSLSLSPG
light: EIVMTQSPATLSVSPGERATLSCRASENIYRNLAWYQQKPGQSPRLLIYAATNLADGIPARFSGSGSGTEYTLTISSLQSEDFAVYYCQHFWGTPWTFGQGTKVEIKRTVAAPSVFIFPPSDEQLKSGTASVVCLLNNFYPREAKVQWKVDNALQSGNSQESVTEQDSKDSTYSLSSTLTLSKADYEKHKVYACEVTHQGLSSPVTKSFNRGEC
notes: human Ig kappa; also called L2-4/HK4
B2: humanized antibody No. 94 (antibody, human IgG1, kappa)
heavy: QVQLVQSGSELKKPGASVKVSCKASGYTFTDYSMHWVRQAPGQGLKWMGWINTETGEPTYAQGFTGRFVFSLDTSVSTAYLQISSLKAEDTAVYYCARIPLYYYGSRYWYFDVWGQGTTVTVSSASTKGPSVFPLAPSSKSTSGGTAALGCLVKDYFPEPVTVSWNSGALTSGVHTFPAVLQSSGLYSLSSVVTVPSSSLGTQTYICNVNHKPSNTKVDKRVEPKSCDKTHTCPPCPAPPAAAPSVFLFPPKPKDTLMISRTPEVTCVVVDVSHEDPEVQFNWYVDGVEVHNAKTKPREEQFNSTFRVVSVLTVVHQDWLNGKEYKCKVSNKGLPAPIEKTISKTKGQPREPQVYTLPPSREEMTKNQVSLTCLVKGFYPSDIAVEWESNGQPENNYKTTPPMLDSDGSFFLYSKLTVDKSRWQQGNVFSCSVMHEALHNHYTQKSLSLSPG
light: B1 light
notes: human Ig kappa; also called L2-4/HA2
B3: humanized antibody No. 71 (antibody, human IgG1, kappa)
heavy: B2 heavy with V2I
light: B1 light
notes: human Ig kappa; also called L2-4/HA4
B4: humanized antibody No. 93 (antibody, human IgG1, kappa)
heavy: B2 heavy with K46E
light: B1 light
notes: human Ig kappa; also called L2-4/HA1
B5: humanized antibody No. 95 (antibody, human IgG1, kappa)
heavy: B2 heavy with K46E, Q62D, G63D, T65K
light: B1 light
notes: human Ig kappa; also called L2-4/HK1
B6: humanized antibody No. 96 (antibody, human IgG1, kappa)
heavy: B2 heavy with Q62D, G63D, T65K
light: B1 light
notes: human Ig kappa; also called L2-4/HK2
B7: humanized antibody No. 73 (antibody, human IgG1, kappa)
heavy: B2 heavy with V2I, Q62D, G63D, T65K
light: B1 light
notes: as for B1

Legend:
Assay in all cases: ELISA
[1] = molecular target: T1, human EphA7 extracellular …
[2] = molecular target: T2, human EphB4 extracellular …
[3] = molecular target: T3, human EphA3 extracellular …
[4] = molecular target: T4, human EphB3 extracellular …
[5] = molecular target: T5, human EphA5 extracellular region-SEAP-His protein (human, UniProt P54756 25-573)
T5 construct: extracellular domain; also called hEphA5-SEAP-His
T5 sequence (P54756 25-573): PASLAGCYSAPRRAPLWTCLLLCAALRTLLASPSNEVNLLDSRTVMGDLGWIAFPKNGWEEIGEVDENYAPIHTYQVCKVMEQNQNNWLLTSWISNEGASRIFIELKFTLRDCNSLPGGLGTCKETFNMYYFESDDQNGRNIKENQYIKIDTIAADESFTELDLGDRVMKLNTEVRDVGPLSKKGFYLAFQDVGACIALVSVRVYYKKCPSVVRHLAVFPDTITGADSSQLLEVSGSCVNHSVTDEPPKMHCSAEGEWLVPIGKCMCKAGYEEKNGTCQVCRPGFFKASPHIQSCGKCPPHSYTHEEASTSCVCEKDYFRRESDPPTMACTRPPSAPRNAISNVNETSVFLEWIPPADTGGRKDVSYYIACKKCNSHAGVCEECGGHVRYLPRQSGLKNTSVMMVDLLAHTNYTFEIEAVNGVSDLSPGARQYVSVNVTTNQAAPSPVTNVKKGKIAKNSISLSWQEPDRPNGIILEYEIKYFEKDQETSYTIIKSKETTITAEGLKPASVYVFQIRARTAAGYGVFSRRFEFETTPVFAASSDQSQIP

A450 as % of hEphA4-SEAP-His [1] [%] | A450 as % of hEphA4-SEAP-His [2] [%] | A450 as % of hEphA4-SEAP-His [3] [%] | A450 as % of hEphA4-SEAP-His [4] [%] | A450 as % of hEphA4-SEAP-His [5] [%] | Binder
5.8 | 5.7 | 5.6 | 5.7 | 5.7 | B1
6.1 | 6.5 | 6.8 | 6.7 | 6.5 | B2
5.2 | 5.5 | 5.6 | 5.5 | 5.6 | B3
4.9 | 5 | 5.1 | 5.1 | 4.9 | B4
4.4 | 4.6 | 4.8 | 4.6 | 4.6 | B5
5.3 | 5.5 | 5.5 | 5.6 | 6 | B6
5.6 | 5.7 | 5.8 | 5.8 | 6 | B7
